{"source": "patent US8092989B2", "about": "“Targeting the histone code as a bacterial strategy for selectively modulating gene expression” (Institut Pasteur, priority 2005, dated 2012)", "molecules": {"B1": {"name": "MKP1: known mammalian dual specific phosphatase used as a control (protein, UniProt P28562 1-367, looked up)", "Dual specificity protein …": "MVMEVGTLDAGGLRALLGERAAQCLLLDCRSFFAFNAGHIAGSVNVRFSTIVRRRAKGAMGLEHIVPNAELRGRLLAGAYHAVVLLDERSAALDGAKRDGTLALAAGALCREARAAQVFFLKGGYEAFSASCPELCSKQSTPMGLSLPLSTSVPDSAESGCSSCSTPLYDQGGPVEILPFLYLGSAYHASRKDMLDALGITALINVSANCPNHFEGHYQYKSIPVEDNHKADISSWFNEAIDFIDSIKNAGGRVFVHCQAGISRSATICLAYLMRTNRVKLDEAFEFVKQRRSIISPNFSFMGQLLQFESQVLAPHCSAEAGSPAMAVLDRGTSTTTVFNFPVSIPVHSTNSALSYLQSPITTSPSC"}, "B2": {"name": "OspF: protein encoded by the Shigella ospF gene, a dual specific phosphatase; NCBI Accession CAC05773 (protein)", "chain": "MPIKKPCLKLNLDSLNVVRSEIPQMLSANERLKNNFNILYNQIRQYPAYYFKVASNVPTYSDICQSFSVMYQGFQIVNHSGDVFIHACRENPQSKGDFVGDKFHISIAREQVPLAFQILSGLLFSEDSPIDKWKITDMNRVSQQSRVGIGAQFTLYVKSDQECSQYSALLLHKIRQFIMCLESNLLRSKIAPGEYPASDVRPEDWKYVSYRNELRSDRDGSERQEQMLREEPFYRLMIE"}, "B3": {"name": "myc-labelled OspF: OspF with a myc label expressed from plasmid pRK5myc-OspF (protein)", "chain": "MPIKKPCLKLNLDSLNVVRSEIPQMLSANERLKNNFNILYNQIRQYPAYYFKVASNVPTYSDICQSFSVMYQGFQIVNHSGDVFIHACRENPQSKGDFVGDKFHISIAREQVPLAFQILSGLLFSEDSPIDKWKITDMNRVSQQSRVGIGAQFTLYVKSDQECSQYSALLLHKIRQFIMCLESNLLRSKIAPGEYPASDVRPEDWKYVSYRNELRSDRDGSERQEQMLREEPFYRLMIE", "modifications": "left off: small tags and cut ends"}}, "key": {"[1]": {"test_system": "histone H3 phosphorylation at Ser 10 (H3 pS10)", "assay": "H3 pS10 immunofluorescence in HeLa cells infected with the ospF strain, kinase inhibitors", "assay_type": "cell-based", "conditions": "60 min pretreatment with both U0126 (10 μM) and SB203180 (2.5 μM), infection 30 min", "experimental": "Indirect immunofluorescence detection was performed with anti-phospho-histone H3 S10 polyclonal antibody. […] Cells were left untreated (ns) or infected with the ospF strain for 30 min. IF was performed with anti-H3 methyl K9-pS10 antibody.\nIndirect immunofluorescence. Cells were fixed with 3.7% paraformaldehyde in PBS for 10 min, permeabilized with 0.5% Triton-X in PBS. The following antibodies were used: anti-phospho-p42/p44 antibody (Sigma); anti-p42/p44, anti-phospho-histone H3 S10 (Upstate Cell Signaling), anti-acetyl histone H4 (Lys14) (Upstate Biotechnology) antibodies."}, "[2]": {"test_system": "^33P-labeled Erk2", "assay": "33P-labeled Erk2 phosphatase assay, steady state kinetics", "conditions": "100 nM phosphatase, pH 8, 30° C., 10 minutes, Michaelis-Menten fit", "experimental": "Preparation of the ^33P-labeled Erk2 kinase substrate. The in vitro phosphorylation of the GST-Erk2 fusion protein was carried out by incubating 500 μg purified GST-Erk2 coupled to beads with 20 μg His6-tagged activated MEK1 (Upstate Cell Signaling) in a kinase buffer (50 mM Tris pH 7.5, 2 mM DTT, 10 mM MgCl2) with 100 μM ATP (γ-3P ATP, 3000 Ci/mmol) for 2 hours at 30° C. The beads were washed 5 times with 30 ml of 1× PBS and eluted in 50 mM Tris pH 8, 10 mM glutathione, and 10% glycerol. The fractions were dialyzed overnight to remove residual ATP in 50 mM Tris pH8, 50 mM NaCl, and 10% glycerol.\nIn vitro phosphatase assay. […] Therefore, the reaction was initiated by the addition of the phosphatase, incubated for 10 minutes at 30° C. and terminated by adding 200 μl cold 20% trichloroacetic acid. The samples were centrifuged at 10,000×g and 200 μl of the supernatant was mixed with 5 ml of scintillation fluid for taking radioactivity measurements. The product generated (inorganic phosphate) was kept below 5% of the initial substrate concentrations. Reactions containing the Erk2 substrate and buffer without phosphatase was used as a blank for each data point. The data were fitted to the Michaelis-Menten equation using the software Kaleidagraph.\nThe kinetic parameters were determined by following the production of radioactive inorganic phosphate."}, "[3]": {"test_system": "IL-12", "assay": "Murine model of pulmonary infection, lung cytokines by ELISA", "assay_type": "in vivo, mice", "conditions": "lungs infected with M90T or ospF strain, 24 hours post-infection (FIG. 10)", "method": "The cytokine/chemokine network induced upon infection with Shigella flexneri was analyzed by comparing the profiles obtained upon infection with the invasive strain carrying the virulence plasmid (INV+) and the non-invasive, plasmidless strain (INV−). The murine model of pulmonary infection was used since it was the only valid model to analyze the specific host immune response upon Shigella infection. Following infection with INV−, a Th1 type-network (IL-12, IL-18, IFN-γ, CCL9, CCL10, CCL13, and CCL4) was induced. In contrast, a Th2/Tr1 profile (IL-10, CCL1, CCL24 and CCL2) was induced upon infection with INV+. The difference observed was not due to the bacterial dose used for the infection, but was dependent on the presence or absence of the virulence plasmid.\nSome of these bacterial effectors are injected within the host cells by a type III secretion apparatus. Use of different bacterial mutants, has highlighted that the bacterial effectors involved in the immunomodulation were effectors secreted by the type III-secretion apparatus. Finally, OspF, a type III-secreted bacterial effector was responsible fore the control of IL-12 production (FIG. 10)."}, "[4]": {"test_system": "histone H3 purified from calf thymus", "assay": "In vitro dephosphorylation of histone H3 / H3 tail peptides", "assay_type": "biochemical", "conditions": "2 hours at 30° C., even when enzyme concentration increased 100 fold", "method": "(§1) (A) HeLa cells were left untreated (ns) or infected with the WT or the ospF strain at the indicated time. Indirect immunofluorescence detection was performed with anti-phospho-histone H3 S10 polyclonal antibody. (B) HeLa cells were synchronized by a double thymidine block (2 mM thymidine) and left untreated (ns) or infected with the WT or the ospF strain at the indicated time. Immunoblots were probed with anti-H3 phospho S10 (H3 pS10), anti-H3 methyl K9-phospho S10(H3 metK9-pS10), anti-H3 phospho S10. acetyl-K14 (H3 p-S10/Ac-K14), anti Histone H3 polyclonal anti-pp38 and pErk antibodies. (C) HeLa cells were transfected with pRK5myc-OspF vector and treated with 200 nM okadaic acid for 3 hours. IF was performed with anti-myc (red) and anti-H3 methyl K9-pS10 (green) antibodies. […] (D) One micogram of calf-thymus histone (Sigma) was incubated with 300 ng of His-OspF or with 120 U of λ phosphatase for 2 hours at 30° C. Western blot was performed with an anti-metK9-pS10 antibody. (E) One micogram of peptide metK9-S10 was spotted onto a nitrocellulose membrane that was incubated with buffers, 5 μg/ml of OspF, or 2000 U/ml of lambda phosphatase for 2 hours at 30° C. Western blot was performed with an anti-metK9-pS10 antibody. (F) HeLa cells were pretreated for 60 min with either the MEK1 inhibitor U0126 (10 μM) or the p38 inhibitor SB203180 (2.5 μM) or both. […]"}, "[5]": {"target": "T1, phospho JNK1 Histidine (Homo sapiens, UniProt P45983)", "T1 construct": "His", "T1 sequence (P45983 whole entry)": "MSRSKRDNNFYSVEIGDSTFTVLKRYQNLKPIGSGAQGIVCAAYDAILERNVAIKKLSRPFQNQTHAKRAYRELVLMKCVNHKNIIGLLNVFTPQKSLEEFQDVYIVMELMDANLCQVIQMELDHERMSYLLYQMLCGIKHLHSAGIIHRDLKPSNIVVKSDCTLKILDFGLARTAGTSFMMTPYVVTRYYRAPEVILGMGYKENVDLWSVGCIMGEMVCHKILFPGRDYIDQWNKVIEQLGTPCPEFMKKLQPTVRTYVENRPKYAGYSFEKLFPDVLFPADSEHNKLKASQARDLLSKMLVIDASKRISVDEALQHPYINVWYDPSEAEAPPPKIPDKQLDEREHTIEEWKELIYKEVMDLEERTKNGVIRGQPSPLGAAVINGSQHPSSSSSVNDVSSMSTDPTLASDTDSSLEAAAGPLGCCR", "assay": "In vitro phosphatase assay on phospho JNK1 (Western blot)", "assay_type": "biochemical", "conditions": "purified phospho-MAP kinase, 50 nM"}, "[6]": {"test_system": "pErk2-GST", "assay": "In vitro phosphatase assay on phospho-Erk2 (Western blot)", "conditions": "purified protein, Western blot with anti phospho-Erk"}, "[7]": {"test_system": "NF-κB reporter construct", "assay": "TNF-α-induced NF-κB reporter construct in Caco 2 cells", "assay_type": "cell-based, human", "conditions": "overexpression in Caco 2 cells", "text": "In addition to the classical MAPK-dependent target genes, OspF also repressed expression of some NF-κB-dependent chemokine genes such as IL-8. The IL-8 promoter contains an NF-κB binding site essential for expression of this gene (Hoffmann et al., 2002). Therefore, the inventors looked whether OspF interferes with the NF-κB signaling pathway. […] (FIG. 5E)."}, "[8]": {"test_system": "histone H3 phosphorylation at Ser 10 (H3 pS10)", "assay": "H3 pS10 induced by okadaic acid in HeLa cells overexpressing OspF", "assay_type": "cell-based", "conditions": "HeLa transfected with pRK5myc-OspF, 200 nM okadaic acid 3 hours", "method": "as §1"}, "[9]": {"target": "T2, phospho p38-GST (Homo sapiens, UniProt Q16539)", "T2 construct": "GST", "T2 sequence (Q16539 whole entry)": "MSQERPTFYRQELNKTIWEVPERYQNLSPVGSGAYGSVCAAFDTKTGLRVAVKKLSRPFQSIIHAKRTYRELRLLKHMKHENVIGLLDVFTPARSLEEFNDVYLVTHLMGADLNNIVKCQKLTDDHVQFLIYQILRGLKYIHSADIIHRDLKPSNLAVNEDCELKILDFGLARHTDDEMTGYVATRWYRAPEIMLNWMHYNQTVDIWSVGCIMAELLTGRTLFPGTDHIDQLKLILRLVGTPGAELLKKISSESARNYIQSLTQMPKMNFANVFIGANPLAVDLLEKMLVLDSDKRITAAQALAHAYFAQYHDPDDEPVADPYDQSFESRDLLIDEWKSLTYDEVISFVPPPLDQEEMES", "assay": "In vitro phosphatase assay on phospho p38 (Western blot)", "assay_type": "biochemical", "conditions": "purified phospho-MAP kinase, 50 nM"}, "[10]": {"test_system": "p46 and p54 JNK kinases", "assay": "JNK phosphorylation in transfected HeLa cells stimulated by TNF", "assay_type": "cell-based", "conditions": "TNF stimulation"}, "[11]": {"test_system": "p38 MAP kinases", "assay": "p38 phosphorylation in transfected HeLa cells stimulated by TNF", "assay_type": "cell-based", "conditions": "TNF stimulation"}, "[12]": {"test_system": "endogenous Erk", "assay": "Erk phosphorylation in transfected HeLa cells stimulated by PMA", "conditions": "HeLa cells transfected with expression plasmid, PMA stimulation"}}, "data": [{"molecule": "C[S+]([O-])c1ccc(-c2nc(-c3ccc(F)cc3)c(-c3ccncc3)[nH]2)cc1", "note": "(stereo not shown) [SB 203180]", "values": [{"measurement": "H3 pS10 signal induced by the ospF strain", "setting": "[1]", "result": "fully inhibited"}]}, {"molecule": "N#CC(=C(/N)Sc1ccccc1N)/C(C#N)=C(\\N)Sc1ccccc1N", "note": "[U0126]", "values": [{"measurement": "H3 pS10 signal induced by the ospF strain", "setting": "[1]", "result": "fully inhibited"}]}, {"molecule": "B1", "values": [{"measurement": "kcat of Erk2 dephosphorylation", "setting": "[2]", "result": 0.0006, "unit": "s⁻¹"}]}, {"molecule": "B2", "values": [{"measurement": "IL-12 production in vivo", "setting": "[3]", "result": "down regulated"}, {"measurement": "direct dephosphorylation of histone H3 (metK9-pS10 / pS10)", "setting": "[4]", "result": "did not directly dephosphorylate"}, {"measurement": "dephosphorylation of phospho JNK1", "setting": "[5]", "result": "failed to dephosphorylate"}, {"measurement": "dephosphorylation of phospho-Erk2", "setting": "[6]", "result": "directly dephosphorylated"}, {"measurement": "TNF-α-induced activation of NF-κB reporter", "setting": "[7]", "result": "did not impair"}, {"measurement": "induction of H3 pS10 by okadaic acid", "setting": "[8]", "result": "efficiently prevented induction"}, {"measurement": "dephosphorylation of phospho p38", "setting": "[9]", "result": "directly dephosphorylated"}, {"measurement": "Vmax of Erk2 dephosphorylation", "setting": "[2]", "result": 9.89, "unit": "pM/s"}, {"measurement": "kcat of Erk2 dephosphorylation", "setting": "[2]", "result": 0.0001, "unit": "s⁻¹"}, {"measurement": "Km", "setting": "[2]; read-out: Km of Erk2 dephosphorylation", "result": 204, "unit": "nM"}]}, {"molecule": "B3", "values": [{"measurement": "effect on JNK phosphorylation in cells", "setting": "[10]", "result": "not"}, {"measurement": "effect on p38 phosphorylation in cells", "setting": "[11]", "result": "prevented phosphorylation"}, {"measurement": "effect on Erk phosphorylation / ability to dephosphorylate Erk in cells", "setting": "[12]", "result": "prevented phosphorylation"}]}]}
